This note sets out measurements from article PMC11746146 (Nature Structural & Molecular Biology, 2024).

As usually defined, the stoichiometry N is a count of units in the complex or per binding partner.

Data set [1] deals with human guanylate-binding protein 1 (GBP1), non-farnesylated (human) (UniProt P32455). Kind of data set: SEC-MALS; protein at 15 µM with the GTP transition-state mimic GDP·AlF3, incubated 5–10 min at room temperature; Superdex200 Increase 10/300 GL; 50 mM HEPES pH 7.4, 150 mM NaCl, 0.5 mM TCEP or DTT. (In general: Size exclusion chromatography separates by hydrodynamic size, large species first.)

In data set [2] the target is T1, human guanylate-binding protein 1 (GBP1), non-farnesylated (human, UniProt P32455).
T1 construct: human GBP1, UniProt P32455, codon-optimized synthetic DNA in pETM14; called full-length in the results; Dimer studied with GDP·AlF3 (200 µM GDP, 10 mM NaF, 300 µM AlCl3, 5 mM MgCl2); also called hGBP1; WT GBP1; source: E. coli BL21(DE3), purified (TALON, 3C cleavage, SEC); not shown: His6, N-terminal, cleaved
The experiment in a line: SEC-MALS; nanobody mixed with GBP1 or GBP1F, in the presence and absence of GDP·AlF3; SDS–PAGE (and western blot for GFP–Nb74) of peak fractions. To be noted: both partners purified.

For data set [3], the target named is T2, farnesylated human GBP1 (GBP1F) (human, UniProt P32455, C-terminal C15-farnesyl moiety (CaaX isoprenylation motif)).
T2 construct: human GBP1, UniProt P32455, from pETM14-GBP1, co-translationally farnesylated; also called GBP1F–GDP·AlF3; WT GBP1F; source: E. coli BL21(DE3), co-expressed with FNTA-FNTB, purified (TALON, 3C cleavage, HIC, SEC); not shown: His6, N-terminal, cleaved
The data set is described as above. To be noted: both partners purified.

Data set [4] concerns the molecule itself. The experiment in a line: mass photometry; Refeyn OneMP; samples with GDP·AlF3 diluted to 15 nM in 50 mM HEPES pH 7.5, 150 mM NaCl.
Data set [5] concerns the molecule itself. Kind of data set: SEC-MALS; protein at 15 µM with the GTP transition-state mimic GDP·AlF3, incubated 5–10 min at room temperature; Superdex200 Increase 10/300 GL; 50 mM HEPES pH 7.4, 150 mM NaCl, 0.5 mM TCEP or DTT.

Positions count from the first letter of the chain named. Names may count otherwise.

As to “human guanylate-binding protein 1 (GBP1), non-farnesylated (from UniProt P32455 1-592) (natural protein)”, the stoichiometry N in data set [1] came to 2.

B1: nanobody 74 (Nb74) (VHH)
VHH: QVQLVESGGGLVQAGDSLRLSCAASGRALGNYYVGWFSQAPGKEREFVAAISWSGSSTFYADSVKGRFTISRDNAKNTVDLQMNSLKPEDTAVYYCAANPTAKLGSSWYQTPREFGYWGQGTQVTVSS
notes: llama nanobody selected by phage display; the entry PDB 8CQB / EMD-16794 is headed GBP1–GDP·AlF3–Nb74, but the deposited model is called the GBP1 dimer (956 protein residues), so Nb74 may not be in it; Raised in llamas immunized with monomeric GBP1, GBP1F or GDP·AlF3-stabilized dimeric GBP1; source: E. coli WK6 (su−), periplasmic extract, purified (Ni-NTA)
As for B1, the “stoichiometry N” value in data set [2] worked out at 1 molar ratio; in data set [3], 1.

B2: GBP1 D308S, non-farnesylated (natural protein, human, UniProt P32455 1-592, looked up)
chain: MASEIHMTGPMCLIENTNGRLMANPEALKILSAITQPMVVVAIVGLYRTGKSYLMNKLAGKKKGFSLGSTVQSHTKGIWMWCVPHPKKPGHILVLLDTEGLGDVEKGDNQNDSWIFALAVLLSSTFVYNSIGTINQQAMDQLYYVTELTHRIRSKSSPDENENEVEDSADFVSFFPDFVWTLRDFSLDLEADGQPLTPDEYLTYSLKLKKGTSQKDETFNLPRLCIRKFFPKKKCFVFDRPVHRRKLAQLEKLQDEELDPEFVQQVADFCSYIFSNSKTKTLSGGIQVNGPRLESLVLTYVNAISSGSLPCMENAVLALAQIENSAAVQKAIAHYEQQMGQKVQLPTETLQELLDLHRDSEREAIEVFIRSSFKDVDHLFQKELAAQLEKKRDDFCKQNQEASSDRCSALLQVIFSPLEEEVKAGIYSKPGGYRLFVQKLQDLKKKYYEEPRKGIQAEEILQTYLKSKESMTDAILQTDQTLTEKEKEIEVERVKAESAQASAKMLQEMQRKNEQMMEQKERSYQEHLKQLTEKMENDRVQLLKEQERTLALKLQEQEQLLKEGFQKESRIMKNEIQDLQTKMRRRKACTIS
notes: human GBP1, UniProt P32455, variant made from pETM14-GBP1 by QuikChange mutagenesis; source: E. coli BL21(DE3), purified (TALON, 3C cleavage, SEC); not shown: His6, N-terminal, cleaved
In the case of B2, the binding result in data set [4] was “binds”.

B3: GBP1 K466D, non-farnesylated (natural protein, human, UniProt P32455 1-592, looked up)
chain: B2 chain with S308D, K466D
notes: as for B2
For the molecule B3, the binding result in data set [4] is “binds”.

B4: GBP1 Y143A, non-farnesylated (natural protein, human, UniProt P32455 1-592, looked up)
chain: B2 chain with Y143A, S308D
notes: as for B2
As for B4, the binding result in data set [4] was “binds”.

B5: GBP1F R584–586A (natural protein, human, UniProt P32455 1-592, looked up)
chain: B2 chain with S308D, R584A, R585A, R586A
modifications: C-terminal C15-farnesyl moiety (CaaX isoprenylation motif)
notes: human GBP1, UniProt P32455, polybasic motif R584–R586 changed to alanines, farnesylated; also called GBP1F R584-R586; source: E. coli BL21(DE3), purified; not shown: His6, N-terminal, cleaved
As to B5, the binding result in data set [5] was “binds”.
